From publication PMC9045395, “Assembly and Functional Role of PACE Transporter PA2880 from Pseudomonas aeruginosa” (Microbiology Spectrum, 2022)

Tests used:
[1] = molecular target: T1, PA2880 (Pseudomonas aeruginosa, UniProt Q9HZW7); assay: native mass spectrometry (LILBID-MS); details: 200 mM ammonium acetate, 0.02% DDM; binding increases dimer population; proton-coupled transport substrate
T1 construct: full length, C-terminal TEV site, eGFP (A206K) and Strep-tag; also tested without eGFP in native MS; expressed in Pseudomonas stutzeri; purified in DDM; dimer

[2] = molecular target: the molecule itself; assay: native MS; LILBID-MS; protein in 200 mM ammonium acetate with 0.02% (wt/vol) DDM, pH 8; monomer to dimer; some samples with chlorhexidine up to a substrate/protein molar ratio of 8 (more dimer)
[3] = molecular target: the molecule itself; assay: native MS
[4] = molecular target: the molecule itself; assay: native MS; LILBID-MS; protein in 200 mM ammonium acetate with 0.02% (wt/vol) DDM, pH series from 5 to 9; monomer to dimer; dimer ratio from deconvoluted zero-charge spectra

N=C(NCCCCCCNC(=N)NC(=N)Nc1ccc(Cl)cc1)NC(=N)Nc1ccc(Cl)cc1 [chlorhexidine]
native mass spectrometry (LILBID-MS) [1]: The LILIBID-MS results showed that chlorhexidine was bound to PA2880

B1: PA2880 fused with enhanced green fluorescent protein (PA2880-eGFP), wild type (natural protein)
chain: MTIQPDFNDEPGAFAMTHTHTALDKTLKERIFHALAFEGLAVLLTAPVLSLVMNKPLAHMGALTLMFSTVAMLWNMLFNSLFDRAQRRMGFQRTLQVRVLHAMLFELGLIVVLVPLAAWWLSIGLVEAFLLDMGLILFFLPYTMAFNWSYDVLRARLVESRQAKAAGCDAG
notes: also called wt; wild-type PA2880 with fused eGFP; source: Pseudomonas stutzeri (pL2020-PA2880-eGFP), purified (Strep XT column, SEC, in DDM); not shown: eGFP (A206K variant), C-terminal, kept
stoichiometry N [2]: 2

B2: wild-type PA2880 without fused eGFP (natural protein)
chain: MTIQPDFNDEPGAFAMTHTHTALDKTLKERIFHALAFEGLAVLLTAPVLSLVMNKPLAHMGALTLMFSTVAMLWNMLFNSLFDRAQRRMGFQRTLQVRVLHAMLFELGLIVVLVPLAAWWLSIGLVEAFLLDMGLILFFLPYTMAFNWSYDVLRARLVESRQAKAAGCDAG
notes: also called PA2880 without eGFP
stoichiometry N [3]: 2

B3: PA2880 E38Q variant (natural protein, Pseudomonas aeruginosa strain PAO1, UniProt Q9HZW7 1-171, looked up)
chain: MTIQPDFNDEPGAFAMTHTHTALDKTLKERIFHALAFQGLAVLLTAPVLSLVMNKPLAHMGALTLMFSTVAMLWNMLFNSLFDRAQRRMGFQRTLQVRVLHAMLFELGLIVVLVPLAAWWLSIGLVEAFLLDMGLILFFLPYTMAFNWSYDVLRARLVESRQAKAAGCDAG
notes: PACE family transporter PA2880 of Pseudomonas aeruginosa strain PAO1 with E38Q; source: purified; not shown: eGFP (A206K variant), C-terminal, kept
stoichiometry N [4]: 2
